Assay [1] addresses VN-Exd fusion protein, expressed in Drosophila embryos (Drosophila melanogaster) (UniProt P40427). Put plainly: split reporter (BiFC, NanoBiT); competition against split Venus BiFC in living Drosophila embryos: an unfused ('cold') protein co-expressed with the two fusion proteins.
Assay [2] deals with VC-Exd fusion protein, expressed in Drosophila embryos (Drosophila melanogaster) (UniProt P40427). Briefly: split reporter (BiFC, NanoBiT); split Venus (VN 1-173, VC 155-238) BiFC in living Drosophila embryos; fusion proteins expressed by UAS/Gal4 (abdA-Gal4, en-Gal4, btl-Gal4 and others); embryos kept at 4°C for 28 h before confocal imaging.
VC-Exd fusion protein, expressed in Drosophila embryos (Drosophila melanogaster), sequence (P40427 whole entry, the tested form may be a part): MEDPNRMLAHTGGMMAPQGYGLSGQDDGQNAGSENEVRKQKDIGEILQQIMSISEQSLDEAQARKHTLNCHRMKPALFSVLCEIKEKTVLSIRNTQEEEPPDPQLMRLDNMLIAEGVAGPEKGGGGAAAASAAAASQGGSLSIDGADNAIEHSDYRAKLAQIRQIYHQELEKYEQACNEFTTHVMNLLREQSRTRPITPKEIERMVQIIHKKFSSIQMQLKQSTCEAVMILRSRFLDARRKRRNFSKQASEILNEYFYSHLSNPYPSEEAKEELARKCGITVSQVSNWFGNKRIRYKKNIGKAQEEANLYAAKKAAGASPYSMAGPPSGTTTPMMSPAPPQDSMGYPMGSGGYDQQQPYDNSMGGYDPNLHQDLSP

VN-AbdA fusion protein, expressed in Drosophila embryos, P29555 1-590 (natural protein; other documents disagree on this pair), sequence (P29555 whole entry, the tested form may be a part): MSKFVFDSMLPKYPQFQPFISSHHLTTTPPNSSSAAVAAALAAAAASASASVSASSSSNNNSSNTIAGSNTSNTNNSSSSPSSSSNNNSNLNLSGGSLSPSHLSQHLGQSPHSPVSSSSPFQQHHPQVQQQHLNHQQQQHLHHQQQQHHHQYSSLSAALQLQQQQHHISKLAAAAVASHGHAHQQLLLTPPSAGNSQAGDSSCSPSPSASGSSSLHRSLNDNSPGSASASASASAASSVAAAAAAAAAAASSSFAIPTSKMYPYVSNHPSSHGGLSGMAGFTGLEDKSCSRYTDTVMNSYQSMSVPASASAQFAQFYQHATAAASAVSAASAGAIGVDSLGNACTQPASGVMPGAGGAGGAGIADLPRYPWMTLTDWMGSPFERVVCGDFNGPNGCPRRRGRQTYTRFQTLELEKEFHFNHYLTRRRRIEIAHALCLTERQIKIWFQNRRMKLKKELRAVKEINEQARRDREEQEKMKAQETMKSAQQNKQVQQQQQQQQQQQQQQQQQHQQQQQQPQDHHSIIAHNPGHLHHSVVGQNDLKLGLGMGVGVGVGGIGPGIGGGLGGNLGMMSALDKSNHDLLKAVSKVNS
AbdominalA (AbdA), unfused parental wild type protein, expressed in Drosophila embryos, P29555 1-590 (natural protein; other documents disagree on this pair), sequence (P29555 whole entry, the tested form may be a part): as above
VN-Exd fusion protein, expressed in Drosophila embryos (Drosophila melanogaster), sequence (P40427 whole entry, the tested form may be a part): as the sequence (P40427 whole entry, the tested form may be a part) above

Consider “AbdominalA (AbdA), unfused parental wild type protein, expressed in Drosophila embryos, P29555 1-590 (natural protein; other documents disagree on this pair)”, for which the percent loss of BiFC between VC-AbdA and VN-Exd in assay [1] came to 80%. As for “VN-AbdA fusion protein, expressed in Drosophila embryos, P29555 1-590 (natural protein; other documents disagree on this pair)”, the fold weaker BiFC signal than VC-AbdA/VN-Exd in assay [2] was found to be 5 fold.

For the origin of these results see publication PMC3041725.
